Among the data in US20260184814A1, “BROADLY NE[…] INFLUENZA NEURAMINIDASE” (priority 2022, published 2026) are Kd values, retold here.

The target of experiment [1] is N2 A/Tanzania/205/2010 S245N 247T (Influenza A virus (H3N2)).
For experiment [2], the target named is N2 A/Switzerland/8060/2017 N245S (Influenza A virus (H3N2)).
Experiment [3] addresses N2 A/HongKong/2671/2019 N245S (Influenza A virus (H3N2)).

Regarding 1G01 Fab, the Kd in experiment [1] is under 0.02 nM; in experiment [2] it was 398 nM; in experiment [3] it was 375 nM.

By Kd is commonly meant the constant that tells how readily two partners part at equilibrium. Read a low Kd as tighter binding.
